Data taken from patent publication US5591427A, “Human Interleukin-3(Il-3) variants and their use to promote or antagonize IL-3-mediated processes” (Medvet Science Pty. Ltd., priority 1979, dated 1997).

Columns and labels:
[1] = biological target: T1, IL-3 high affinity receptor of monocytes (Homo sapiens, UniProt P26951+P32927); assay: Competition for 125I-IL-3 binding to the high affinity receptor of monocytes; details: high affinity receptor on monocytes
T1 construct: endogenous in cells; host or cells: freshly purified human peripheral blood monocytes
T1 sequence (P26951 19-378): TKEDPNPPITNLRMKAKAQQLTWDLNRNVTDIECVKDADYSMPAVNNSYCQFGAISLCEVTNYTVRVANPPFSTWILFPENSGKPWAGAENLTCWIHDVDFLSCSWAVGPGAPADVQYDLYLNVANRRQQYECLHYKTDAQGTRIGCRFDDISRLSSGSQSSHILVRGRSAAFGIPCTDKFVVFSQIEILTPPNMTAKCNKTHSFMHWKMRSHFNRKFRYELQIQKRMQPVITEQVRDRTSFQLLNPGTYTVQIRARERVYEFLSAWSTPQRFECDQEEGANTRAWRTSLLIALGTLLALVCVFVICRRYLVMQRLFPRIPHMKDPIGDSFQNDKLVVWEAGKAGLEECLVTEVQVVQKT
T1 sequence (P32927 17-897): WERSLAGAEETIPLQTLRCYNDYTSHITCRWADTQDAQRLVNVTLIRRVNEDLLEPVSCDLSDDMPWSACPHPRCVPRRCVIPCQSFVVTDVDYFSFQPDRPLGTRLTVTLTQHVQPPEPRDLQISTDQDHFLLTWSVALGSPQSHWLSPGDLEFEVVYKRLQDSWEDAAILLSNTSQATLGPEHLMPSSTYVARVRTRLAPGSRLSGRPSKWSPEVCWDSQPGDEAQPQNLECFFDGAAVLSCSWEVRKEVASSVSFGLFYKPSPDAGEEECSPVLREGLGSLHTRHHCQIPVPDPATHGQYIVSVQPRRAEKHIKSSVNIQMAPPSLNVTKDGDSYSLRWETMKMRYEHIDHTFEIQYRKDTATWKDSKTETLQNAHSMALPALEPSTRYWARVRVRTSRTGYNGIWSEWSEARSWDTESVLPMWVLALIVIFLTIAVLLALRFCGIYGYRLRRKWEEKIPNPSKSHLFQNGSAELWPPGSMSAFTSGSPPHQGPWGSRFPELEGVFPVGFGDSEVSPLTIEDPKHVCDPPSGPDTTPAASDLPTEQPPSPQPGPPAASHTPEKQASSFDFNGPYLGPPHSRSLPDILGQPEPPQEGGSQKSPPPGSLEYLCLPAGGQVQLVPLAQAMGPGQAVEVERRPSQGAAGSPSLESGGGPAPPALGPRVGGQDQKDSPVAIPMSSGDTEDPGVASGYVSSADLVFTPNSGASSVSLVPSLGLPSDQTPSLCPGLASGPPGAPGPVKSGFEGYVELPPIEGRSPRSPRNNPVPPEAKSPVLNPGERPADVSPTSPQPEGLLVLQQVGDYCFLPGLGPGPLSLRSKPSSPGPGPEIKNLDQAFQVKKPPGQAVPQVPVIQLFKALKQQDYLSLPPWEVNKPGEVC
Procedure: (a) Radioiodination of hIL-3: rh IL-3 (gift from Dr. L. Park, Immunex Corporation, Seattle, Wash.) was radioiodinated by the ICI method as previously described (Contreras et. al., supra). Iodinated protein was separated from free ^125 I by chromatography on a Sephadex G-25 PD 10 column (Pharmacia, Uppsala, Sweden) equilibrated in phosphate-buffered saline (PBS) containing 0.02% Tween 20, and stored at 4° C. for up to 4 weeks. Before use, the iodinated protein was purified from Tween and nonprotein-associated radioactivity by cation exchange chromatography on a 0.3-ml CM-Sepharose CL-6B column (Pharmacia) and stored at 4° C. for up to 5 days.
(b) Competition Binding assay. Freshly purified monocytes were suspended in binding medium consisting of RPMI 1640 supplemented with 20 mmol/L/HEPES and 0.5% bovine serum albumin (BSA). […] Cell suspensions were then overlaid on 0.2 mL FCS at 4° C. and centrifuged for 30 seconds at a maximum speed in a Beckman Microfugre 12. The tip of each tube was cut off above the visible cell pellet and counted in a Packard Auto-Gamma 5650 (Downer's Grove, Ill). The results are expressed as Percent competition where 100% is the competition observed in the presence of 100 fold excess native IL-3.

basophils = assay: Histamine release assay with basophils; assay type: cell-based, human; details: FIG. 4
Procedure: This was carried out as previously described (Lopez et. al., 1990, J. Cell. Physiol., 145, 69-77). Briefly, basophils were obtained from the peripheral blood of normal individuals after dextran sedimentation and centrifugation over Lymphoprep. The percentage of basophils in these preparations varied between 0.2% and 10%. In 300 μl 2×10^4 cells were incubated with 2 μg/ml of purified human IgE. IgE-sensitisedcells were mixed with a goat IgG antihuman IgE (Cappel 0101-0061) and rhIL-3, in a final volume of 500 μl. After incubation for 60 min at 37° C., the cells were centrifuged and 350 μl aliquots removed and stored at -20° C. before assaying for histamine content. Histamine was assayed using a radioertzymatic method essentially as described (Shaff and Beavan, 1979, Anal. Biochem., 94, 425-430). Briefly, samples of 30 μl were diluted with an equal volume of water and mixed with a 30 μl solution comprising 27.5 μl 0.1 M sodium phosphate, pH 7.9, 1.5 μl rat kidney histamine-N-methyltransferase, and 1.0 μl (0.5 μCi)^3 H-methyl-S-adensoyl-L-methionine (Dupont Net 155, low SA). Tritium-labelled methyl-histamine was extracted into chloroform/ether, dried, and counted by scintillation spectrophotometry. […] as nanograms of histamine per milliliter by extrapolation to a standard curve constructed with 10, 5 and 1 ng/ml of histamine (SIGMA).

[2] = biological target: T2, IL-3R α chain and β chain (Homo sapiens, UniProt P26951+P32927); assay: Competition for 125I-IL-3 binding to reconstituted IL-3 high affinity receptor (α and β chains) in COS cells
T2 construct: amplify the complete coding region of the IL-3R alpha chain; also to amplify the coding region of the IL-3R α chain; expressed in transfected cells; host or cells: COS cells (pCDM8 vector, electroporation)
T2 sequence (P26951 19-378): T1 sequence (P26951 19-378)
T2 sequence (P32927 17-897): T1 sequence (P32927 17-897)
Source text: PolyA+ RNA was isolated from the human cord blood cell line KMT2. Oligo dT primed double stranded cDNA was synthesised and used as template for PCR amplification. The PCR primers were designed to amplify the complete coding region of the IL-3R alpha chain and also to amplify the coding region of the […]. The PCR products were cloned into the vector pGEM-2 for sequence verification, and then into the eukaryotic expression vector, pCDM8. The […]-containing plasmid was transfected into COS cells by electroporation, either on its own or in conjunction with the […], and after two days the cells were used for binding studies.

B1: M37: human IL-3 mutant, Asp 101 replaced by Ala and Lys 116 by Val (protein, UniProt P08700 20-152, looked up, variant D101A K116V)
Interleukin-3: APMTQTTPLKTSWVNCSNMIDEIITHLKQPPLPLLDFNNLNGEDQDILMENNLRRPNLEAFNRAVKSLQNASAIESILKNLLPCLPLATAAPTRHPIHIKAGDWNEFRRKLTFYLVTLENAQAQQTTLSLAIF
In the case of B1, the “fold higher binding affinity than wild-type IL-3” value [1] is reported as 10-15 fold, the “fold higher binding affinity than wild-type IL-3” value ([1]; listed as IL-3 (Ala^101, Val^116)) is reported as 16 fold and the “histamine release from basophils” value (basophils) is reported as “increased histamine release”. For the same molecule, the “fold higher affinity than wild type IL-3” value ([2]; COS cells transfected with IL-3R α chain and β chain cDNAs, E. coli produced protein) was 15 fold and the “binding to cotransfected α and β chains” value ([2]; FIG. 7) was “higher affinity”.
